Results: patent US20010010923A1, “MODIFIED CARBOXYPEPTIDASE” (priority 1997, published 2001)
“Also recorded” adds a separate entry of the source. Marks after values point to notes of the source that are not given here.

B1: M398E: carboxypeptidase Y S1' mutant, substitution M398E (protein, UniProt P00729 112-532, looked up, variant M398E)
Carboxypeptidase Y: KIKDPKILGIDPNVTQYTGYLDVEDEDKHFFFWTFESRNDPAKDPVILWLNGGPGCSSLTGLFFELGPSSIGPDLKPIGNPYSWNSNATVIFLDQPVNVGFSYSGSSGVSNTVAAGKDVYNFLELFFDQFPEYVNKGQDFHIAGESYAGHYIPVFASEILSHKDRNFNLTSVLIGNGLTDPLTQYNYYEPMACGEGGEPSVLPSEECSAMEDSLERCLGLIESCYDSQSVWSCVPATIYCNNAQLAPYQRTGRNVYDIRKDCEGGNLCYPTLQDIDDYLNQDYVKEAVGAEVDHYESCNFDINRNFLFAGDWMKPYHTAVTDLLNQDLPILVYAGDKDFICNWLGNKAWTDVLPWKYDEEFASQKVRNWTASITDEVAGEVKSYKHFTYLRVFNGGHEVPFDVPENALSMVNEWIHGGFSL
B2: T60W: carboxypeptidase Y S1' mutant, substitution T60W (protein, UniProt P00729 112-532, looked up, variant T60W)
Carboxypeptidase Y: KIKDPKILGIDPNVTQYTGYLDVEDEDKHFFFWTFESRNDPAKDPVILWLNGGPGCSSLWGLFFELGPSSIGPDLKPIGNPYSWNSNATVIFLDQPVNVGFSYSGSSGVSNTVAAGKDVYNFLELFFDQFPEYVNKGQDFHIAGESYAGHYIPVFASEILSHKDRNFNLTSVLIGNGLTDPLTQYNYYEPMACGEGGEPSVLPSEECSAMEDSLERCLGLIESCYDSQSVWSCVPATIYCNNAQLAPYQRTGRNVYDIRKDCEGGNLCYPTLQDIDDYLNQDYVKEAVGAEVDHYESCNFDINRNFLFAGDWMKPYHTAVTDLLNQDLPILVYAGDKDFICNWLGNKAWTDVLPWKYDEEFASQKVRNWTASITDEVAGEVKSYKHFTYLRVFNGGHMVPFDVPENALSMVNEWIHGGFSL
B3: T60L: carboxypeptidase Y S1' mutant, substitution T60L (protein, UniProt P00729 112-532, looked up, variant T60L)
Carboxypeptidase Y: KIKDPKILGIDPNVTQYTGYLDVEDEDKHFFFWTFESRNDPAKDPVILWLNGGPGCSSLLGLFFELGPSSIGPDLKPIGNPYSWNSNATVIFLDQPVNVGFSYSGSSGVSNTVAAGKDVYNFLELFFDQFPEYVNKGQDFHIAGESYAGHYIPVFASEILSHKDRNFNLTSVLIGNGLTDPLTQYNYYEPMACGEGGEPSVLPSEECSAMEDSLERCLGLIESCYDSQSVWSCVPATIYCNNAQLAPYQRTGRNVYDIRKDCEGGNLCYPTLQDIDDYLNQDYVKEAVGAEVDHYESCNFDINRNFLFAGDWMKPYHTAVTDLLNQDLPILVYAGDKDFICNWLGNKAWTDVLPWKYDEEFASQKVRNWTASITDEVAGEVKSYKHFTYLRVFNGGHMVPFDVPENALSMVNEWIHGGFSL
B4: T60F + M398F: carboxypeptidase Y double substitution mutant T60F + M398F (protein, UniProt P00729 112-532, looked up, variant T60F M398F)
Carboxypeptidase Y: KIKDPKILGIDPNVTQYTGYLDVEDEDKHFFFWTFESRNDPAKDPVILWLNGGPGCSSLFGLFFELGPSSIGPDLKPIGNPYSWNSNATVIFLDQPVNVGFSYSGSSGVSNTVAAGKDVYNFLELFFDQFPEYVNKGQDFHIAGESYAGHYIPVFASEILSHKDRNFNLTSVLIGNGLTDPLTQYNYYEPMACGEGGEPSVLPSEECSAMEDSLERCLGLIESCYDSQSVWSCVPATIYCNNAQLAPYQRTGRNVYDIRKDCEGGNLCYPTLQDIDDYLNQDYVKEAVGAEVDHYESCNFDINRNFLFAGDWMKPYHTAVTDLLNQDLPILVYAGDKDFICNWLGNKAWTDVLPWKYDEEFASQKVRNWTASITDEVAGEVKSYKHFTYLRVFNGGHFVPFDVPENALSMVNEWIHGGFSL
B5: N51Q + M398L: carboxypeptidase Y mutant N51Q + M398L (protein, UniProt P00729 112-532, looked up, variant N51Q M398L)
Carboxypeptidase Y: KIKDPKILGIDPNVTQYTGYLDVEDEDKHFFFWTFESRNDPAKDPVILWLQGGPGCSSLTGLFFELGPSSIGPDLKPIGNPYSWNSNATVIFLDQPVNVGFSYSGSSGVSNTVAAGKDVYNFLELFFDQFPEYVNKGQDFHIAGESYAGHYIPVFASEILSHKDRNFNLTSVLIGNGLTDPLTQYNYYEPMACGEGGEPSVLPSEECSAMEDSLERCLGLIESCYDSQSVWSCVPATIYCNNAQLAPYQRTGRNVYDIRKDCEGGNLCYPTLQDIDDYLNQDYVKEAVGAEVDHYESCNFDINRNFLFAGDWMKPYHTAVTDLLNQDLPILVYAGDKDFICNWLGNKAWTDVLPWKYDEEFASQKVRNWTASITDEVAGEVKSYKHFTYLRVFNGGHLVPFDVPENALSMVNEWIHGGFSL
B6: T60V: carboxypeptidase Y S1' mutant, substitution T60V (protein, UniProt P00729 112-532, looked up, variant T60V)
Carboxypeptidase Y: KIKDPKILGIDPNVTQYTGYLDVEDEDKHFFFWTFESRNDPAKDPVILWLNGGPGCSSLVGLFFELGPSSIGPDLKPIGNPYSWNSNATVIFLDQPVNVGFSYSGSSGVSNTVAAGKDVYNFLELFFDQFPEYVNKGQDFHIAGESYAGHYIPVFASEILSHKDRNFNLTSVLIGNGLTDPLTQYNYYEPMACGEGGEPSVLPSEECSAMEDSLERCLGLIESCYDSQSVWSCVPATIYCNNAQLAPYQRTGRNVYDIRKDCEGGNLCYPTLQDIDDYLNQDYVKEAVGAEVDHYESCNFDINRNFLFAGDWMKPYHTAVTDLLNQDLPILVYAGDKDFICNWLGNKAWTDVLPWKYDEEFASQKVRNWTASITDEVAGEVKSYKHFTYLRVFNGGHMVPFDVPENALSMVNEWIHGGFSL

Experiments:
Assay type in all cases: biochemical
[1] = Transpeptidation of FA-Ala-Xaa-OH with H-Gly-NH2, Table 2; settings: for Fraction of aminolysis (fa), P1' Ala: FA-Ala-Ala-OH 0.2 mM; for Fraction of aminolysis (fa), P1' Ala / Fraction of aminolysis (fa), P1' Leu / Fraction of aminolysis (fa), P1' Met / Fraction of aminolysis (fa), P1' Phe / Fraction of aminolysis (fa), P1' Val: 1.9 M H-Gly-NH2, pH 7.5, room temperature; for Fraction of aminolysis (fa), P1' Leu: FA-Ala-Leu-OH 0.2 mM; for Fraction of aminolysis (fa), P1' Met: FA-Ala-Met-OH 0.2 mM; for Fraction of aminolysis (fa), P1' Phe: FA-Ala-Phe-OH 0.2 mM; for Fraction of aminolysis (fa), P1' Val: FA-Ala-Val-OH 0.2 mM; for fraction of aminolysis compared to wild type, in words: larger, hydrophobic leaving group such as leucine
Protocol: (§1) Transamidation reactions were carried out generally as described in PCT Application WO 95/20039. In general, the method included dissolving the nucleophile (H-Leu-NH2, unless otherwise indicated) in 50 mM HEPES, 5 mM EDTA and adjusting the pH to 7.5, 5 μl of peptide substrate (8 mM Bz-G-A-R-A-R-A-OH, unless otherwise indicated, in methanol) was added to 190 μl nucleophile solution followed by 5 μl enzyme, resulting in a substrate concentration of 0.2 mM.
(§2) During the reaction, 20 μl aliquots were removed from the reaction mixture and added to 50 μl 1% trifluoroacetic acid to quench the reaction. The reactant composition was determined by HPLC using a Waters HPLC equipped with a C-18 Waters Novapac 4μ reverse phase column and various gradients of acetonitrile in 0.1% trifluoroacetic acid. The separation was monitored at 254 nm allowing the direct quantification of the products from the integrated peak areas. The composition of the reaction mixture was determined at least twvice during the reaction, the first when 20-50% (preferably 35%) of the substrate had been consumed in the reaction and the second time when 50-90% (preferably 80%) of the peptide substrate had been consumed.
(§3) The fraction of aminolysis (fa) was expressed as the ratio between the formed aminolysis product and the sum of all products formed. Unconsumed substrate was disregarded in the calculations.
Site specific mutagenesis was performed as described for Example 1 to produce the S1 mutants used below.
Transamidation reactions were performed as described for Example 1.

[2] = Transpeptidation of FA-Ala-OBzl with H-Leu-NH2, Table 3; settings: for fa: H-Leu-NH2; for change in famax and KN(app), in words: compared with wild type, Table 3
Protocol: as §1, §2, §3
Site specific mutagenesis was performed as described in Example 1 to produce the specific substitution mutants described below. Transamidation reactions were performed as described for Example 1.
In table 3, below, KN(app) represents the nucleophile concentration at which fa is half of the maximum value (a measure for the dissociation constant of the nucleophile). famax is the highest possible fa obtained at saturation of the enzyme with the nucleophile.
KN(app) indicates the concentration at which famax/2 is reached and thus describes the apparent binding constant of the nucleophile. Because the competing hydrolysis reaction is thought to occur while the leaving group remains attached to the to the acyl-enzyme intermediate, a low KN(app) is preferred.

[3] = Transpeptidation of Bz-G-A-R-A-R-X-OH at pH 7.5 at 50% substrate consumption, Table 4; design: key to fa: fraction: aminolysis product / sum of all products formed; settings: for Pmax (peak product yield) / fa: 375 mM H-Leu-NH2; for fa / t: 50% substrate consumption; for t: 375 mM H-Leu-NH2, 2 mM substrate, [E] 0.1 mg/mL
Protocol: as §1, §2, §3
Site specific mutagenesis was performed as described for Example 1 to generate the specific mutants described below. Transamidation reactions were performed as described for Examples 1.

Row | Molecule | Fraction of aminolysis (fa), P1' Ala [1] | Fraction of aminolysis (fa), P1' Leu [1] | Fraction of aminolysis (fa), P1' Met [1] | Fraction of aminolysis (fa), P1' Phe [1] | Fraction of aminolysis (fa), P1' Val [1] | fraction of aminolysis compared to wild type, in words [1] | fa ([2]; FA-Ala-OBzl 0.2 mM, pH 7.5) | change in famax and KN(app), in words [2] | KN(app) ([2]; nucleophile H-Leu-NH2 concentration at which fa is half of maximum, FA-Ala-OBzl 0.2 mM, pH 7.5) | Pmax (peak product yield) ([3]; leaving group A) | fa ([3]; leaving group A) | t ([3]; leaving group A) | Pmax (peak product yield) ([3]; leaving group L) | fa ([3]; leaving group L) | t ([3]; leaving group L)
1 | B1 | 0.92 | 0.84 | 0.74 | 0.71 | 0.82 | improvement in fraction of aminolysis obtained; also recorded: most dramatic improvement; also recorded: enhanced transpeptidation | 0.97^a | increase in famax while decreasing KN(app) | 0.93^a mM |  |  |  |  |  | 
2 | B2 | 0.93 | 0.45 | 0.49 | 0.47 | 0.39 | improvement in fraction of aminolysis obtained; also recorded: most effective at increasing the fraction of aminolysis | 0.96^a | increase in both famax and KN(app) |  |  |  |  |  |  | 
3 | B3 | 0.91 | 0.13 | 0.08 | 0.24 | 0.17 |  | 1.0^b | increase in both famax and KN(app) |  |  |  |  |  |  | 
4 | B4 | 0.86 | 0.86 | 0.82 | 0.66 | 0.73 | further improved the fraction of aminolysis |  |  |  |  |  |  |  |  | 
5 | B5 |  |  |  |  |  |  |  |  |  | >0.07 | 0.18 | 3200 min | >0.04 | 0.10 | 3500 min
6 | B6 | 0.94 | 0.15 | 0.17 | 0.08 | 0.29 |  | 0.97^a | increase in both famax and KN(app) |  |  |  |  |  |  | 
